In article PMC10242683, “Catalytic Cycle of the Bifunctional Enzyme Phosphoribosyl-ATP Pyrophosphohydrolase/Phosphoribosyl-AMP Cyclohydrolase” (ACS Catalysis, 2023):

T1: phosphoribosyl-ATP pyrophosphohydrolase/phosphoribosyl-AMP cyclohydrolase (AbHisIE) (Acinetobacter baumannii, UniProt V5VH18)
T1 construct: gene hisIE; full-length AbHisIE (A. baumannii strain ATCC17978), recombinant
T1 sequence (V5VH18 1-257): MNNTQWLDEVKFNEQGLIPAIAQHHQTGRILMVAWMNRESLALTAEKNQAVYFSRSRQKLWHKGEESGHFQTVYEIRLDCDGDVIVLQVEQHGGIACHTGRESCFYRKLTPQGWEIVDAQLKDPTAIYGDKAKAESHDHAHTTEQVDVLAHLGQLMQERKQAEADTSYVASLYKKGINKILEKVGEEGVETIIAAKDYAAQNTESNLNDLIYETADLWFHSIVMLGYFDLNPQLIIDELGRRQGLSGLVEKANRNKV

B1: phosphoribosyl-ATP pyrophosphohydrolase/phosphoribosyl-AMP cyclohydrolase (AbHisIE) (Acinetobacter baumannii) (protein)
chain: T1 sequence (V5VH18 1-257)
notes: full-length AbHisIE (A. baumannii strain ATCC17978), recombinant

What was measured:
[1] = molecular target: T1, phosphoribosyl-ATP pyrophosphohydrolase/phosphoribosyl-AMP cyclohydrolase (AbHisIE); assay: initial rates of ProFAR formation from PRATP at […] nm, dose-response with purified AbHisIE; type: biochemical
purified protein [2] = substrate: N=c1c2ncn([C@@H]3O[C@H](COP(=O)(O)OP(=O)(O)OP(=O)(O)O)[C@@H](O)[C@H]3O)c2ncn1[C@@H]1O[C@H](COP(=O)(O)O)[C@@H](O)[C@H]1O; assay: purified protein; type: biochemical, Acinetobacter baumannii; settings: Mg2+ (HisE-like domain); Zn2+ (HisI-like domain) pyrophosphohydrolase active site in the C-terminal HisE-like domain
purified protein [3] = substrate: N=c1c2ncn([C@@H]3O[C@H](COP(=O)(O)O)[C@@H](O)[C@H]3O)c2ncn1[C@@H]1O[C@H](COP(=O)(O)O)[C@@H](O)[C@H]1O; assay: purified protein; type: biochemical, Acinetobacter baumannii; settings: Zn2+ (HisI-like domain) cyclohydrolase active site in the N-terminal HisI-like domain

Molecule	IC50 [1]	Km (purified protein [2])	kcat (purified protein [2])	Km (purified protein [3])
N=c1c2ncn([C@@H]3O[C@H](COP(=O)(O)OP(=O)(O)O)[C@@H](O)[C@H]3O)c2ncn1[C@@H]1O[C@H](COP(=O)(O)O)[C@@H](O)[C@H]1O [PRADP]	52 ± 4 µM	–	–	–
B1	–	4.0 ± 0.7 µM	5.6 ± 0.3 s⁻¹	11 µM
